Results taken from the DeepSol protein solubility set.

Assay: soluble on expression in E. coli; label from the status in PepcDB or PDB records

Soluble on expression in E. coli, not soluble:
MGSDKIHHHHHHMETREQAKFFHLDEFSGLSLLQASYHRQRFARHVHETFCIGVIEEGVQRFYRTGGEHVAPKGDIILVNADEIHTGSPGVETGWAYRAIYPHPDLMLLLSRDLINANGTVPWFPEAVVHDPGLAEQFRLVFNLLTRDGDRLLKESLLLSSIASLVMRHGRTPAFARELPSVGQPLRIIKDLIASCPEEDYSLTQLAEMAHLSPWHFLRQFKKQVGLPPHAWLIQARLKRARQLLRRGLPIPVVAARCRFSDQSHFNRHFKSSFGITPGEFIRTLPSLSA
MGSDKIHHHHHHMEYATLGNSGVEVSEVGFGAWVVGTDWWGDRTRDDAIDMVQHALDEDVTFFDTGDVYGHGDSEEIIGEALAEHRDEVTVSTKIGYDFYNNPQAGHGELPKKVTPEWVHTAVDRSLDRLGMDHVELLMLHNANVDEVDEDVLEALDELREEGKVDAIGWALGPSIGWLAEGDAAVANEFDALQTVFNLFEQTPGQHFIDTIREQNADTSVLARVPHSSGLLNEQVTPETELGKGDHRSHRPSEWYETGWEKVEEIRFLERDGARTMGQAAIQWLLYNDEVASVTPTFRTNADIDEWAGAPDTPPLSDEEYDRVQELYRDNFGIDRDDGMDALRSSVGGADLEETGMKSAGD
MGSDKIHHHHHHMEYNDVVEAVISALKKAHTELPEDVVTAIKKAYDSEENDIAKRNLEAILKNIEAAKKLGVPMCQDTGIPVFFVEVGRELCLDFDLKEAIVEGVRKATAEIPLRPNAVHPITRENSGDNTGLGIPQINVELVKGDELRMVVMPKGAGSENVSALKMMLPTQVDKIKDFVVETVKNAGGKPCPPIFVGVGVGSTFDGAAKLAKKALLRNVLEMNDFELELLEAVNELGIGAMGLGGKYTALAVLVEFGHCHTASLPVAVNIQCWANRRAEVVLR
MGSDKIHHHHHHMFAHCDVNAFYASCQTAFRPDLKGRPVVVLSNNDGCVIARSAEAKPFVKMGEPYFKQKAAFLRHGVVAFSSNYELYADMSSRVMATLEELTPRCEIYSIDEAFCDVSGVRHCRDLTDFGREIRATVLQRTHLTLGVGIAQTKTLAKLANHAAKQWPRQTGGVVDLSCPQRQRKLMALLPVSEVWGIGRRIGKKLEAMGIGTVLQLAESDIRFIRKHFTVVLERTVRELRGEPCLALEEFAPAKQEIICSRSFGDRITAYEDMRQAICSYAARAAEKLRGEHQYCRFVSAFVKTSPFALNEPYYGNSASLKLLTPTQDSRDIIAAATSCLDAIWKAGHRYQKAGVMLGDFYSQGVAQLNLFDELAPRHNSARLMQVLDQLNAKNGRGALYFAGQGIQQQWQMKREMLSPRYTTRYGDLLRVR
MGSDKIHHHHHHMFCKVMKIGISCHHTYGGSGAVATELGKALAMKGHTVHFFSQAAPFRLGLYSRNIYCHEIEAMNYPLFETPYHSLALASKIAEVAFYEKLDVVHAHYAIPHAISAMLARQMLEEKCPAAECFRIVTTLHGTDITIVGADRSMSDAVRLAINKSDGVTAVSGYLRDETIRMFTPRKKIEVIHNFVDTAVFKRLPGRRDLLGLDGGKVVIHISNFRPVKRIMDVLAVFESIRREIPATLLLVGDGPDRSEAETWVRNYGIGDRVRFLGKLDDIVPLLSIADLMLMPSNVESFGLAALEAMACGVPVVVTDAGGFPEFVRQGVDGFRHPHGDIEGMSRSALSILRDDEVWQRFSGAAANQAGRFKTALKVKEYEAFYRRLIDEARERKAQ
MGSDKIHHHHHHMFKRKVISFDIGSKNIKLVEGKCDGDKVIVTNMDMIETPKNSMNDGSIVDINLIAEAVRKLIDKVSTRTKNVVFTSQSTSIITRTVEIPWAKEKDMKSMIKYDIEQYLPIDLNEYIIKHKVIDEFQKEEVKMVRANVVVYPKKMAKAYWSLVEELELKPMALEVSLSAMEKILSSKDIITINEKDYQKEDTIAIVDIGSDEIEMNIIANGNLEFTRVLMGGGAYIDSSISNELSVDMDVAEEKKIIFGDLTLDNFSGEKQIVNEAMKNVIDRWNSEILRMLDYFKNKNKDKQIKKVYVHGGTSQIPGLCQYMKNSLGISVELIKNISTVSLDKKLEDKDITNYINAIGSIIM
MGSDKIHHHHHHMFLAGAFIAVGSLYAQSSDAEWQAGVAKLKETIQTNPAQANEEAEQLIKGKNKKNVELLVAIGEVYLKAGKLPEAQEYAALAKKVNGKSALASVLEGDIAFEQKNAGLASQKYEEAIYFDPSCTEAYLRYADIYKSANAALAIEKLEQLKAQEPSNTAVDKKLAEIYYLKNDFSKAAEAYSRFAMGPTATEEDLVKYAFALFLNHDFEKSLEVANMGLKKNARHAAFNRLAMYNYTDLKRFDEAIKAADAFFTESDKADYSYLDYMYYGHLLEALKKYDEAVGQYEKAIQLDPTKTDLYKNISSAYEQKNDYKKAISAYQKYYTSLDKEHQTPDLQFQFGRLYYGAGTQTDSLTINAEERKQALMAADSVFHSIAEAAPDSYLGNFWRARANSALDPETTLGLAKPFYEEVATLLESKNDPHYNSALIECYSYLGYYYLLAIENPALKAEAMANKEKSKEYWSKILAIDSTNATAKRALDGIK
MGSDKIHHHHHHMFLTKVSLLDHPESLPGYLSSLAIVEYLHEQPLEFRAPITVITGENGVGKSTLVEALAVGMRLNPSGGSRHANFGREGDIVSSLHQSLKLVRRENPRDAFFFRGETMYNVASYYEELMGEKNMHDLHKMSHGESVFAVIDRRFNNQGFFVLDEPEAGLSMLRQLELLGKLGNLARGGAQIIMATHSPILLAIPGAEILEITSSGVAKVNFEDAEAVRAAREFVADPRGTAAFLTAEEDHQ
MGSDKIHHHHHHMFLVCGEALFDIFTRADDGGSLNRLGFDAIAGGSPFNVAIGLRRLGVEAAFFAGLSTDYLGRRLRAVLEQETVNAEHLIEFDAPTTLAMVAVGSDGSPTYSFRGDGCADRQLRLEHLPELDERVRGIHVGSFSLVVQPIADTLLALVARESARRLISLDPNVRLNPAPDIQRWRTQIAAFAEHAHLIKVSDEDLHLLYPDSDPQQIAEGWLGKRTQLVIVTRGTQGASVFTRQHGTWSVPAKTVVTADTVGAGDTFQAALLTFLSERQLDTPQGLSTLSRETLDEMLNFAVGAAALTCTKVGPDLPYRHQLG
MGSDKIHHHHHHMFPPDKTLFLCLSALLLASCGTTSGKHRQPKPKQTVRQIQAVRISHIDRTQGSQELMLHSLGLIGTPYKWGGSSTATGFDCSGMIQFVYKNALNVKLPRTARDMAAASRKIPDSRLKAGDLVFFNTGGAHRYSHVGLYIGNGEFIHAPSSGKTIKTEKLSTPFYAKNYLGAHTFFTE
MGSDKIHHHHHHMFQWKKLGKVFTPQDINNRPWLKEFAQAPATLVFDDFVRVYFSCRPPVDEHGMYVSYSAWVDLDRNNLFNVLRVSEKPILPLGQSGEFDEFGTYPVSVVRDENIFRAYYAGWTRCESVPFNVAIGMAISDDGDVFRKAGPGPIISYSPEEPFVMSGPKIRRFNGEWQLFYIAGRRWKLVDGRAEPVYKIRMAVSSDGTNWRKINKDLISSRIEEDEAQASPDVFYANGRYHMFFCYRYSEHYRGKKHGYRIGYAWSSDLIDWHRDDEKVGIDVSETGWDSEMISYPHVFELDGKVYMAYLGDQVGRYGFGLAQLEGELR
MGSDKIHHHHHHMFREDRKGLIVVEVENQDLIKTIQVKFPRLSKGQKLIAEYILKHYDKAAFLTAAKLGSSVGVSESTVVRFANELGFSGYPKLQKALQELIKNKLTTVQRIELSNDFIDQESTLKSVLKSDMENIRYTLEKINHKTFDDVVDSIFSAKRIYILGLRSSTPIAEFLGFYLNLILDNAKIISYGVSDIFEQMMNVAKGDLVIGIGFPRYAARTIEALDYAQNNEATVVAITDSLLSPLAARANHTLIAQSNMASFVDSLVAPLSVVNALIIAVGLREKDKISSTFSKLEHIWQEYEVYSYKERRRD
MGSDKIHHHHHHMFSLEQLEAFMETVESGSFSNAARQLKKAQSVVSQHVMNLEIDCGVELFDRSGRYPVLTAEGSKLLPYARATILQHRRLKHTALSLFSRQSSEVCLAMDEGIPIQRISEIIQLLESDFPNIELEFLSASSIDIIDMVHSGRASTGLIFSELSMPSSIDFESIGVIEFDLYVASSHPLAKSVAPNMDSLRLYRQLCIRSRNTKTSSFQQVFSPDVWYADNYYVLLELALQGHGWCLLPEHMASSSVSSGNLTRVPIEFEQIGWYANVDVIQHQDKSSLPLLKRLRQLFRELLVGQK
MGSDKIHHHHHHMFSPTKLKEKRESQGLSQSQLASSLGISRVSYFNWESGKTKPNQNNLSKLSQILTVDPCYFESEYEIVETYLKLTEKNQKATLHYATELLNKQNEKVVDIPERFAYKVYEKLSAGTGTAYFDDGNYDTVYFNHQFDYDFASWVFGNSMEPTYENGSVALIKQTGFDYDGAIYAIDWDGQTYIKKVYREENGLRLVSLNRNYSDKFAPYDENPRIIGKIVGNFMPLED
MGSDKIHHHHHHMGAARRLPSALFLLGCRTRTRGEHAHMGKIRTGIGGWTFEPWRGTFYPDDLKQKDELKYAASKLTSIEINGTYYSTFKPNSWMKWRDETPDDFVFSVKASRFCTNRRVLSENNDSLEKFLSQGLEELGPKLGPINWQFMATKKFDPADFEGFLKLLPSEQKGVRLRHAMEVRSPTFACQQFYDLCAQYGVAIVYAVDDEAPEWPRIDQPTADFTYARLMCSREDEPTGMTSEELDGVVAQTHKWAERGDVFAYFIAGAKVRNPAAAMALIGKLGG
MGSDKIHHHHHHMGDNLILSFRPDLQIKEEAGKIYLQSPVRSLVCQRVSRGLRQLMKTLTTGSGSEDFLSEPVFKEDGAGEVAKFYYHLQQFIERGFISYNVMMEQEILAIYTPFSAAPLYNEKLFKQKQRYRLSRFTYSRRDGQEIILESPLANGRVVLTHWLAAAVLHLLAEACTAGEISMQFPALPKKSLQLFLELLLSAGMLEEVDDAGISAGEGDEVLQQWEFHDLLFHARSRLGPHEQPVGGTYRFWGRIAPLPAVKNPMSGERIKLYRPDMEKLREDDYPFSLVLEERKSIRDYADEPISVQQLGEFLYRSARIKELIKANPPAGLLYEASYRPYPGGGAAYELEIYLAVNECEGLPGGLYHYDPWQHELEKLTTRTSEVEGLLKYCSNAAGLKELPPVSLHITARFQRVAWKYQSLTYSVILKDVGALCQTLYLVATAMDLAPTAIGSGPAKLLCRIAGLNYLQESAVGEFILGNKRI
MGSDKIHHHHHHMGFYEEMIRRIAADADPAACVEEIRIYANWVLVKTGKWSISTYFHGMPGFTDPAGMGTWMGDWIGRPARAAALELLVSREILKRSVGMACLKSLLPDPPATIAGGAIELVEPAACRIPTCFIGYFKTAAAWREKGYPVTIVELFPRPGDIHWNEADEVLEKAELVLMTGLTVVNETLEAVIRRTPSARMRIIMGPTVPASPVLFDYGIDMLGITQIDDVELMSNYALLGGGSIANAPAGALRSLNMARDLRALQERISALAR
MGSDKIHHHHHHMGGIYRLSLKSTEATAERLSCDTRCNYEDRDLAYSPDGRWLAIARRFSNISEDIFIRDLASAHEKRLTQGLEDIRGLSWTPDSQALVFATEDSGSSNGFTLDINTAQIRSLDVEGMSYPSSVSAEGELVYHQYHRQFQMAYFSLGDKVPGSLFPLLYSGVSHRNPDYSPEAKRIVFVSSETGYNEIWTSDINGQKLEQLTQLKSRVAYPRWSPDGSRIAFIAPDDRNEGNRIFILDLTNKNITALASSYHNHGRPSWNWQGTAVLASTADGITEFYLDNRAPRVISSLSMAVGFAKSATELVFSRDGENGLWQINLTQPEHVEQLISTDAFRAGNNWVLTASGVYFKSSNGHEQLLNYWEASSQQVTSLLRVPRSSLSGFGSMTYIPEANRLVMTLDGFPQRDIILLKHKLLK
